T1: Human CD93 on cells (human CD93 expressing CHO cells; HUVEC, U937 and KG1a cells) (human, UniProt Q9NPY3 22-652)
T1 construct: whole, on cells; also called hCD93 expressing CHO cells; hCD93 CHO cells
T1 sequence (looked up): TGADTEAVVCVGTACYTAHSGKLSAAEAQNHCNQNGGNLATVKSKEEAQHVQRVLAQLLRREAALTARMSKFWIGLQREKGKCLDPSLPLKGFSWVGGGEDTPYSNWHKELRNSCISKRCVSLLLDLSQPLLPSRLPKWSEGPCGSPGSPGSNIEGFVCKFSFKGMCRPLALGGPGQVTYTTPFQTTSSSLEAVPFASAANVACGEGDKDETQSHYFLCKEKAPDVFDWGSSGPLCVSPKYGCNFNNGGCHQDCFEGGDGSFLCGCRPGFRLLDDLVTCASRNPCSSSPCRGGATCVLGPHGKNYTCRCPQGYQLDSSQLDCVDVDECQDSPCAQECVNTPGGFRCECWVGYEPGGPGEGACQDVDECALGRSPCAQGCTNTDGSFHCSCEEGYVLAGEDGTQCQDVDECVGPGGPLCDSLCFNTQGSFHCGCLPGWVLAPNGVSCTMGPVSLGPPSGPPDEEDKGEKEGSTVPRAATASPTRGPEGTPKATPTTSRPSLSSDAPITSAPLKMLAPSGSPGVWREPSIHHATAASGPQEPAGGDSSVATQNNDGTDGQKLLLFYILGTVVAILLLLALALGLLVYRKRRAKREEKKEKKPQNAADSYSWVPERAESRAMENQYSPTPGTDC

T2: Human CD93 recombinant protein (Sino Biological Inc, Catalog #12589-H08H) (human, UniProt Q9NPY3 22-580)
T2 construct: Biotinylated (EZ-LINK NHS-PEG4 biotin) in the BLI assays; also called hCD93; His-tagged human CD93
T2 sequence (looked up): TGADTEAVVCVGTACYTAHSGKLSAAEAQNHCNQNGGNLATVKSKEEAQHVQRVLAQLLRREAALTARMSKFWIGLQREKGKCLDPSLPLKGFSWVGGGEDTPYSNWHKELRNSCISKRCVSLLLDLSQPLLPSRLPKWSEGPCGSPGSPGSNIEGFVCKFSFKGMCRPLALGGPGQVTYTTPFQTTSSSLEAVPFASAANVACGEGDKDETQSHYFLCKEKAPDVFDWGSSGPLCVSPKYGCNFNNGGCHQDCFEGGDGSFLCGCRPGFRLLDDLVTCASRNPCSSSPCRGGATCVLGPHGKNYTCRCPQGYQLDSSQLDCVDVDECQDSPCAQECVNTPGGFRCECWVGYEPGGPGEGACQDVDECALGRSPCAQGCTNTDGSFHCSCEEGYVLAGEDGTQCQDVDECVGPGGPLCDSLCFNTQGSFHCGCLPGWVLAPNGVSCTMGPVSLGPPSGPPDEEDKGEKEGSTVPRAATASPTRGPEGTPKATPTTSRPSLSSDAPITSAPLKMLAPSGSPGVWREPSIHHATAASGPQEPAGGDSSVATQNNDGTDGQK


Experiments:
[1] = target: T1, Human CD93 on cells (human CD93 …); test: flow cytometry titration, KG1a cells
Protocol: (§1) KG1a cells were detached by incubation with TrypLE reagents (Thermo Fisher), which preserves the integrity of CD93 on the cell surface. Then the cells were incubated with serial diluted anti-CD93 antibodies for 30 minutes at 4° C. After washing by FACS buffer, the cells were incubated with Alexa Fluor 647 conjugated anti-human IgG (Jackson ImmunoResearch) for 30 minutes in 4° C. After washing by FACS buffer twice, the samples were acquired in NovoCyte Flow Cytometer and analyzed by NovoExpress software.

[2] = target: T2, Human CD93 recombinant protein (Sino …); test: ELISA, His-tagged human CD93 coated, OD450; antibody stored 2 weeks at 40 C
Protocol: (§2) His-tagged human CD93 was coated onto a 96 well plate at 1 μg/mL in 1×PBS overnight at 4° C. The plate was washed with ELISA wash buffer (Boston BioProduct, Inc.) and the wells were blocked with ELISA blocking buffer for 1 hour at 37° C. […] The plate was washed with ELISA wash Buffer. HRP-conjugated anti-human Fc antibody was incubated for 1 hour at 37° C. The plate was washed with ELISA wash Buffer. HRP substrate was added for indirect detection of the antibodies binding to CD93.

[3] = target: T2, Human CD93 recombinant protein (Sino …); test: ELISA, His-tagged human CD93 coated, OD450; antibody stored 4 weeks at 40 C
Protocol: as §2

[4] = target: T1, Human CD93 on cells (human CD93 …); test: summary table, column FACS (KG1a cells); 2 weeks at 40 C
Protocol: as §1, §1

[5] = target: T2, Human CD93 recombinant protein (Sino …); test: summary table, column ELISA (hCD93); 2 weeks at 40 C
Protocol: as §2, §2

[6] = target: T2, Human CD93 recombinant protein (Sino …); test: ELISA, His-tagged human CD93 coated, OD450
Protocol: as §2

[7] = target: T1, Human CD93 on cells (human CD93 …); test: summary table, column FACS (KG1a cells); 4 weeks at 40 C
Protocol: as §1, §1

[8] = target: T1, Human CD93 on cells (human CD93 …); test: summary table, column FACS (HUVEC cells)

| EC50 [1] [nM] | EC50 [2] [nM] | EC50 [3] [nM] | EC50 [4] [nM] | EC50 [5] [nM] | EC50 [6] [nM] | EC50 [7] [nM] | EC50 [8] [nM] | Binder |
| --- | --- | --- | --- | --- | --- | --- | --- | --- |
| 0.131 | 0.049 | 0.051 | 0.113 | 0.049 | 0.033 | 0.115 | – | h16E4 (humanized 16E4, VH4+VL6) (antibody, V domains shown, Detected with anti-human IgG, so a human Fc) VH: QVQLVQSGAEVKKPGASVKVSCKASGYTFTSYWMHWVRQAPGQGLEWMGEIDPSASYTYYNQKFKGRVTMTRDKSSSTVYMELSSLTSEDSAVYYCARSVYYGNKYFDVWGAGTTVTVSS VL: DIQMTQSPSTLSASVGDRVTITCKASQSVDYAGDSYMNWYQQKPGKAPKLLIYAASNLESGVPSRFSGSGSGTEFTLTISSLQPDDFATYYCQQTNEDPRTFGGGTKLEIK |
| – | – | – | – | – | – | – | 0.2 | 16E4 (hybridoma) (antibody, IgG2a, V domains shown, also called 16E4 mAb; 16E4 mIgG2a) VH: QVQLQQPGAELVKPGASVKLSCKASGYTFTSYWMHWVKQRPGQGLEWIGEIDPSASYTYYNQKFKGKATLTVDKSSSTAYMQLSSLTSEDSAVYYCARSVYYGNKYFDVWGAGTTVTVSS VL: not shown |
| 0.024 | 0.0413 | 0.0407 | 0.021 | 0.0413 | 0.0427 | 0.019 | 1.34 | h7F3 (humanized 7F3, VH3+VL3) (antibody, human IgG1, V domains shown, also called humanized 7F3-hIgG1) VH: QVQLVQSGAEVKKPGASVKVSCKASGYTFTDYEMHWVRQAPGQGLEWMGGIDPETGDTAYNQNFKGRVTMTTDTSTSTAYMELRSLTSDDTAVYYCTNYGNLYYYAMDYWGQGTSVTVSS VL: EIVLTQSPSSLSASVGDRVTITCRASSSVSSSYLHWYQQKPGKAPKLLIYSTSNLAFGVPSRFSGSGSGTSYTFTISSLQPEDIATYYCQQYSGYPLTFGSGTKLEIK |
